This is an account of results in FireProtDB (doi:10.1021/bi049320b).

For this data set the following is noted: Bacillus amyloliquefaciens, pH 8, 25 °C, Urea, Fluorescence, Tris-HCl 30 mM, whole UniProt chain shown.

B1: Barstar wild type, P11540 (protein)
chain: MKKAVINGEQIRSISDLHQTLKKELALPEYYGENLDALWDCLTGWVEYPLVLEWRQFEQSKQLTENGAESVLQVFREAKAEGCDITIILS
In the case of B1, the denaturant m value was 1.16 kcal/mol/M and the unfolding free energy was 20.1 kJ/mol. Moreover, for the setting “KCl 0.5 M”, the denaturant m value turned out to be 1.12 kcal/mol/M and the unfolding free energy amounted to 24.3 kJ/mol. For the setting “KCl 1.0 M”, the denaturant m value is 1.19 kcal/mol/M and the unfolding free energy was found to be 28.9 kJ/mol.
